The supplement of paper PMC7125110
± gives the standard error. For some assays here: Variants at the floor of the assay were thinned out.

B1: glmS ribozyme (parent)
chain: AUAAAAGCGCCAGAACUACAGAAAUGUAGUUGACGAGGAGGAGGUUUAUCGAAUUUUCGGCGGAUGCCUCCAAA

Experiments:
Conditions in all cases: with glucosamine-6-phosphate
glucosamine-6-phosphate [1] = variants of: B1; experiment: kcat; higher = faster cleavage; RNA array
Outline: (§1)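 Weighted Michaelis–Menten fits across concentrations supplied kcat and KM, based on kobs from one- or two-exponential decay fits to normalised per-tile medians. The data came from barcoded ribozyme variants transcribed in situ by E. coli RNA polymerase on sequenced MiSeq chips and tracked at 37 °C by a hybridised Cy3 probe. Glucosamine-6-phosphate (40 μM to 10 mM) in HEPES/KCl/Mg(OAc)2 buffer was flowed in.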

glucosamine-6-phosphate [2] = variants of: B1; experiment: self-cleavage kobs at 40 uM GlcN6P; higher = faster cleavage; RNA array
Outline: as §1

glucosamine-6-phosphate [3] = variants of: B1; experiment: self-cleavage kobs at 160 uM GlcN6P; higher = faster cleavage; RNA array
Outline: as §1

glucosamine-6-phosphate [4] = variants of: B1; experiment: self-cleavage kobs at 640 uM GlcN6P; higher = faster cleavage; RNA array
Outline: as §1

glucosamine-6-phosphate [5] = variants of: B1; experiment: self-cleavage kobs at 2500 uM GlcN6P; higher = faster cleavage; RNA array
Outline: as §1

glucosamine-6-phosphate [6] = variants of: B1; experiment: self-cleavage kobs at 10000 uM GlcN6P; higher = faster cleavage; RNA array
Outline: as §1

glucosamine-6-phosphate [7] = variants of: B1; experiment: KM; higher = weaker cofactor use; RNA array
Outline: as §1

What does the source list for C16A A53G?
kcat (glucosamine-6-phosphate [1]): 0.00159 ± 0.00057 s⁻¹; self-cleavage kobs at 40 uM GlcN6P (glucosamine-6-phosphate [2]): 7.66e-05 ± 1.7e-05 s⁻¹; self-cleavage kobs at 160 uM GlcN6P (glucosamine-6-phosphate [3]): 0.000134 ± 3.8e-05 s⁻¹; self-cleavage kobs at 640 uM GlcN6P (glucosamine-6-phosphate [4]): 0.000374 ± 9.2e-05 s⁻¹; self-cleavage kobs at 2500 uM GlcN6P (glucosamine-6-phosphate [5]): 0.000777 ± 0.00017 s⁻¹; self-cleavage kobs at 10000 uM GlcN6P (glucosamine-6-phosphate [6]): 0.0017 ± 0.00029 s⁻¹

With C16G U30C as the variant, how does the kcat (glucosamine-6-phosphate [1]) read?
The kcat was 0.000111 ± 8.3e-06 s⁻¹.

And the KM (glucosamine-6-phosphate [7])?
Its KM is 763 ± 200 µM.

What about the “self-cleavage kobs at 640 uM GlcN6P” value (glucosamine-6-phosphate [4]) of the same variant?
The value was 5.29e-05 ± 9.6e-06 s⁻¹.

And the “self-cleavage kobs at 2500 uM GlcN6P” value (glucosamine-6-phosphate [5])?
The value was 7.58e-05 ± 1.2e-05 s⁻¹.

And the “self-cleavage kobs at 10000 uM GlcN6P” value (glucosamine-6-phosphate [6])?
Its value is 0.000109 ± 1.3e-05 s⁻¹.

How did the kcat (glucosamine-6-phosphate [1]) turn out when A15C C16A G37U C70U C71G was run?
The kcat was 1.25e-05 ± 2.5e-06 s⁻¹.

What does the source list for G29A U30A?
kcat (glucosamine-6-phosphate [1]): 0.00133 ± 0.00052 s⁻¹; self-cleavage kobs at 40 uM GlcN6P (glucosamine-6-phosphate [2]): 2.98e-05 ± 1.5e-05 s⁻¹; self-cleavage kobs at 160 uM GlcN6P (glucosamine-6-phosphate [3]): 5.7e-05 ± 2e-05 s⁻¹; self-cleavage kobs at 640 uM GlcN6P (glucosamine-6-phosphate [4]): 0.000149 ± 2.4e-05 s⁻¹; self-cleavage kobs at 2500 uM GlcN6P (glucosamine-6-phosphate [5]): 0.000752 ± 0.00014 s⁻¹; self-cleavage kobs at 10000 uM GlcN6P (glucosamine-6-phosphate [6]): 0.000862 ± 0.00016 s⁻¹

How did the kcat (glucosamine-6-phosphate [1]) turn out when G29A U30C was run?
Its kcat is 3.24e-05 ± 8.4e-06 s⁻¹.

What about the “self-cleavage kobs at 2500 uM GlcN6P” value (glucosamine-6-phosphate [5]) of the same variant?
The value was 4.91e-05 ± 1.5e-05 s⁻¹.

And the “self-cleavage kobs at 10000 uM GlcN6P” value (glucosamine-6-phosphate [6])?
Its value is 2.58e-05 ± 1e-05 s⁻¹.

Which kcat (glucosamine-6-phosphate [1]) does the source give for G29U C67U here?
Its kcat is 0.000984 ± 0.0002 s⁻¹.

And the KM (glucosamine-6-phosphate [7])?
Its KM is 1050 ± 320 µM.

What about the “self-cleavage kobs at 40 uM GlcN6P” value (glucosamine-6-phosphate [2]) of the same variant?
Its value is 4.55e-05 ± 8.7e-06 s⁻¹.

What about the “self-cleavage kobs at 160 uM GlcN6P” value (glucosamine-6-phosphate [3]) of the same variant?
The value was 0.000126 ± 1.3e-05 s⁻¹.

What about the “self-cleavage kobs at 640 uM GlcN6P” value (glucosamine-6-phosphate [4]) of the same variant?
Its value is 0.000384 ± 5.4e-05 s⁻¹.

What about the “self-cleavage kobs at 2500 uM GlcN6P” value (glucosamine-6-phosphate [5]) of the same variant?
Its value is 0.000575 ± 8.5e-05 s⁻¹.

What about the “self-cleavage kobs at 10000 uM GlcN6P” value (glucosamine-6-phosphate [6]) of the same variant?
Its value is 0.0012 ± 0.00018 s⁻¹.

Which results are given for G29U A53G C67G?
kcat (glucosamine-6-phosphate [1]): 0.000147 ± 2.6e-05 s⁻¹; self-cleavage kobs at 40 uM GlcN6P (glucosamine-6-phosphate [2]): 5.1e-05 ± 1.8e-05 s⁻¹; self-cleavage kobs at 160 uM GlcN6P (glucosamine-6-phosphate [3]): 6.91e-05 ± 1.9e-05 s⁻¹; self-cleavage kobs at 640 uM GlcN6P (glucosamine-6-phosphate [4]): 0.000108 ± 1.9e-05 s⁻¹; self-cleavage kobs at 2500 uM GlcN6P (glucosamine-6-phosphate [5]): 0.000139 ± 3.6e-05 s⁻¹; self-cleavage kobs at 10000 uM GlcN6P (glucosamine-6-phosphate [6]): 0.000205 ± 4.9e-05 s⁻¹

With A15G C67A C71U as the variant, how does the kcat (glucosamine-6-phosphate [1]) read?
The kcat was 0.000877 ± 0.00033 s⁻¹.

What about the “self-cleavage kobs at 40 uM GlcN6P” value (glucosamine-6-phosphate [2]) of the same variant?
Its value is 7.86e-05 ± 1.3e-05 s⁻¹.

What about the “self-cleavage kobs at 640 uM GlcN6P” value (glucosamine-6-phosphate [4]) of the same variant?
The value was 0.000523 ± 0.00013 s⁻¹.

What about the “self-cleavage kobs at 2500 uM GlcN6P” value (glucosamine-6-phosphate [5]) of the same variant?
The value was 0.000455 ± 0.00016 s⁻¹.

And the “self-cleavage kobs at 10000 uM GlcN6P” value (glucosamine-6-phosphate [6])?
The value was 0.00139 ± 0.00024 s⁻¹.

Which results are given for G29A C67A?
kcat (glucosamine-6-phosphate [1]): 0.00104 ± 0.00036 s⁻¹; self-cleavage kobs at 40 uM GlcN6P (glucosamine-6-phosphate [2]): 2.96e-05 ± 8.8e-06 s⁻¹; self-cleavage kobs at 160 uM GlcN6P (glucosamine-6-phosphate [3]): 0.000165 ± 3.2e-05 s⁻¹; self-cleavage kobs at 640 uM GlcN6P (glucosamine-6-phosphate [4]): 0.000205 ± 3.9e-05 s⁻¹; self-cleavage kobs at 2500 uM GlcN6P (glucosamine-6-phosphate [5]): 0.0005 ± 9.3e-05 s⁻¹; self-cleavage kobs at 10000 uM GlcN6P (glucosamine-6-phosphate [6]): 0.00099 ± 0.00013 s⁻¹

Which results are given for A15C U30A A48U?
kcat (glucosamine-6-phosphate [1]): 6.89e-05 ± 1.4e-05 s⁻¹; self-cleavage kobs at 40 uM GlcN6P (glucosamine-6-phosphate [2]): < 1e-05 s⁻¹; self-cleavage kobs at 2500 uM GlcN6P (glucosamine-6-phosphate [5]): 4.08e-05 ± 1.4e-05 s⁻¹; self-cleavage kobs at 10000 uM GlcN6P (glucosamine-6-phosphate [6]): 5.4e-05 ± 2e-05 s⁻¹

With A14U U65C as the variant, how does the kcat (glucosamine-6-phosphate [1]) read?
Its kcat is 8.95e-05 ± 1.3e-05 s⁻¹.

What about the “self-cleavage kobs at 640 uM GlcN6P” value (glucosamine-6-phosphate [4]) of the same variant?
Its value is 3.59e-05 ± 8.9e-06 s⁻¹.

What about the “self-cleavage kobs at 2500 uM GlcN6P” value (glucosamine-6-phosphate [5]) of the same variant?
Its value is 9.87e-05 ± 1.3e-05 s⁻¹.

And the “self-cleavage kobs at 10000 uM GlcN6P” value (glucosamine-6-phosphate [6])?
Its value is 7.83e-05 ± 7.7e-06 s⁻¹.

How did the kcat (glucosamine-6-phosphate [1]) turn out when G29A C71G was run?
The kcat was 0.00019 ± 3.4e-05 s⁻¹.

What about the “self-cleavage kobs at 640 uM GlcN6P” value (glucosamine-6-phosphate [4]) of the same variant?
Its value is 9.26e-05 ± 2.3e-05 s⁻¹.

What about the “self-cleavage kobs at 2500 uM GlcN6P” value (glucosamine-6-phosphate [5]) of the same variant?
The value was 0.000117 ± 2.3e-05 s⁻¹.

What about the “self-cleavage kobs at 10000 uM GlcN6P” value (glucosamine-6-phosphate [6]) of the same variant?
Its value is 0.000204 ± 3.3e-05 s⁻¹.

With A15U U46C as the variant, how does the kcat (glucosamine-6-phosphate [1]) read?
The kcat was 0.000336 ± 2.6e-05 s⁻¹.

And the KM (glucosamine-6-phosphate [7])?
The KM was 1290 ± 210 µM.

And the “self-cleavage kobs at 160 uM GlcN6P” value (glucosamine-6-phosphate [3])?
The value was 2.98e-05 ± 1.3e-05 s⁻¹.

And the “self-cleavage kobs at 640 uM GlcN6P” value (glucosamine-6-phosphate [4])?
Its value is 0.000111 ± 1.1e-05 s⁻¹.

What about the “self-cleavage kobs at 2500 uM GlcN6P” value (glucosamine-6-phosphate [5]) of the same variant?
The value was 0.000249 ± 3.3e-05 s⁻¹.

What about the “self-cleavage kobs at 10000 uM GlcN6P” value (glucosamine-6-phosphate [6]) of the same variant?
Its value is 0.000288 ± 2.9e-05 s⁻¹.

For A15U G37C C70G, which kcat (glucosamine-6-phosphate [1]) is on record?
The kcat was 2.75e-05 ± 1.1e-05 s⁻¹.

With G29U C34G as the variant, how does the kcat (glucosamine-6-phosphate [1]) read?
The kcat was less than 1e-05 s⁻¹.

And the “self-cleavage kobs at 40 uM GlcN6P” value (glucosamine-6-phosphate [2])?
Its value is less than 1e-05 s⁻¹.

What about the “self-cleavage kobs at 10000 uM GlcN6P” value (glucosamine-6-phosphate [6]) of the same variant?
The value was less than 1e-05 s⁻¹.

What does the source list for A15C A64G?
kcat (glucosamine-6-phosphate [1]): 0.00792 ± 0.0013 s⁻¹; KM (glucosamine-6-phosphate [7]): 2980 ± 660 µM; self-cleavage kobs at 40 uM GlcN6P (glucosamine-6-phosphate [2]): 0.000125 ± 1.6e-05 s⁻¹; self-cleavage kobs at 160 uM GlcN6P (glucosamine-6-phosphate [3]): 0.00037 ± 6.2e-05 s⁻¹; self-cleavage kobs at 640 uM GlcN6P (glucosamine-6-phosphate [4]): 0.00113 ± 0.00024 s⁻¹; self-cleavage kobs at 2500 uM GlcN6P (glucosamine-6-phosphate [5]): 0.00387 ± 0.00068 s⁻¹; self-cleavage kobs at 10000 uM GlcN6P (glucosamine-6-phosphate [6]): 0.00614 ± 0.00072 s⁻¹
